Here are results for 41 sequences from the nanobody polyreactivity screen of Harvey et al. (2022).

The nature of the data set: yeast display, Sf9 membrane polyspecificity reagent, FACS + sequencing; frameworks hold sequencing errors. A digest of the protocol:
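Sorting gates, low and high (top ~1%), were placed on anti-HA fluorescence to track expression and on streptavidin fluorescence to track reagent binding. A clone's polyreactivity label is taken from the gate it came out of. The reagent was 10% biotinylated, detergent-solubilized Sf9 membrane, applied for 1 hour at 4 °C to galactose-induced yeast display cells.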
Turning to “QVQLVESGGGLVQAVGSLRLSCAASGSTFKRNAMGWYRQAPGKERELVAAITSGGSTYYADSVKGRFTISRDNAKNTVYLQMNSLKPEVTAVYYCNKVPYLKLKMDYWGQGTQVTVSS”, the “polyreactivity (PSR sort gate)” value is “high polyreactivity”.
For the sequence “QVQLVESGGGLVQAGGSLRLSCAASGFTFHYNAMGWYRQAPGKERELVAAITSGGSTYYADSVKGRFTISRDNAKNTVYLQMNSLKPEDTAVYYCNKLYYRYHHNYDYWGQGTQVTVSS”, the “polyreactivity (PSR sort gate)” value was “high polyreactivity”.
“QVQLVESGGGLVQAGGSLRLSCAASGSTFRYYAMGWYRQAPGKERELVAAISRSGGRTYYADSVKGRFTISRDNAKNTVYLQMNSLKPEDTAVSYCATRGDGSSWGDHDYWGQGTQVTVSS”: the “polyreactivity (PSR sort gate)” value is recorded as “high polyreactivity”.
The same measure for “QVQLVESGGGLVQAGGSLRFSCAASGSTFVYYAMGWSRQAPGKERELVARITLSGTSTSYADSVKGRFTISRDNAKNTVYLQMNSLKPEDTAVYYCAAESWSHRYYYWGQGTQVTVSS”: “low polyreactivity”.
Take “QVQLVESGGVLVQAGGSLRLICAASGSIFGWNTKGWYRQSAGKERELVAGITRGGSTYYADSVKGRFTISRDNAKNTVYLQMNRQKPEDTAVYYCAALVYRAWEFEFWGQGTQVTVSS”: the “polyreactivity (PSR sort gate)” value is given as “high polyreactivity”.
For “QVQLVESGGGLVQAGGSLRLSCAASGRTFRTYVMGWYRQAPGKERELVAAITWSGGRTYYADSVKGRFTISRDNAKNTVYLQMNSLKPEDTAVYYCATQPTYYLRSYGLDYWGQGTQVTVSS”, the “polyreactivity (PSR sort gate)” value is on record as “high polyreactivity”.
The same measure for “QVQLVESGGGLVQAGGSLRLSCAASGLTFSYYAMGWYRQAPGKERELVAAISWSGGITYYADSVKGRFTISRDNAKNTVYLQMNSLKPEDTAVYYCAADGYPTLYDYWGQGTQVTVSS”: “high polyreactivity”.
Then “QVQLVESGGGLVQAGGSLRLTCAASGRTFYFYTMGWYRQAPGKERELVATITWRGGRTYYADSVKGRFTITRDNAKNTVYLQMNSLKPEDTAVYYCNADYASYRHRMDYWGQGTQVTVSS”, with “high polyreactivity”.
Then “QVQLVESGGGLVQTGGSLRLSCAASGSTFYLYTMGWYRQAPGKERELVAAISGRDGSTYYADSVKGRFTISRDNAKNTVYLQMNSLKPEDTAVYYCAADPGYTYVHVTYYYWGQGTQVTVSS”, with “low polyreactivity”.
Consider “QVQLVESGGGLVQAGGSLRLSCAASGFIFKFYAMGWYRQAPGKETELVAAISKSGGRTYYADSVKGRFTISRDNAKNSVYLQMNSLKPEDTAVYYCNAPSVGAAFDYWGQGTQVTVSS”, for which the “polyreactivity (PSR sort gate)” value is “high polyreactivity”.
“QVQLVESRGGLVQAGGSLRLSCAASGFTFRYYAMGWYRQAPGKERELVARITRCASTSYADSVKGRFTISRDNAKNTVYLLMISLIPEDTAVYYCAADSPAGGYVFPELPYDYWGQGTQVTVSS”: the “polyreactivity (PSR sort gate)” value is on record as “low polyreactivity”.
In the case of “QVQLVESGGGLVQAGGSLRLSCAASGSIFLPNAMGWYRQAPGKERELVARITSTGSTNYADSVKGRFTISRDNAKNTVYLQMNSLKPEDTAVYYCAADYYPFYVKREQAYPDIPYDSWGQGTQVTVSS”, the “polyreactivity (PSR sort gate)” value is reported as “low polyreactivity”.
The same measure for “QVLLEESGGGLVQAGGSLRLSCAASGRIFLRKVMGWYRQAPGKERELVAAISLSGASTYYADSVKGRFTISRDNAKNTVYLQMNCLKPEDTAVYYCAADITILYDYWGQGTQVTVSS”: “low polyreactivity”; for “QVQLVESGGGLVQAGGSLRLSCAASGSIFRGYTMGWYRQAPGKERELVAAISRSGGSTYYADSVKGRFTISRDNAKNTVYLQMNSLKPEDTAVYYCNVVYFVTTSPGYDYWGQGTQVTVSS”: “high polyreactivity”; for “QVQLVESGGCLVQAGGSLRLSCAASGLTFSWYAMGWYRQAPGKERELVAAISTRGGRTYYADSVKGRFTISRDNAKNTVYLQMNSLKPEDTAVYYCAAGVSYRYLWLVDYWGQGTQVTVSS”: “high polyreactivity”.
Then “QVQLVESGGGLVQAGGSLRLSCAASGLIFAIYAMGWYRQAPGNERELVAAIRWSGASTYADSVKGRFTISRDNAKNTVYLQMNSLKPEDTAVYYCAADDLLDYDYWGQGTQVTVSS”, with “low polyreactivity”; and “QVQLVESGGGLVQAGGSLRLSCAASGLTFWYYAMGWYRQAPGKERELVAAISWSGGRTSYADSVKGRFTISRDNAKNTVYLQMNSLKPEDTAVYYCAADKDFRTGEFEYDYWGQGTQLTVSS”, with “high polyreactivity”; and “QVQLVESGGGLVQAGGSLRLSCAASGRIFHYNAMGWYRQAPGKERELVAVITTIGGDTYYADSVKGRFTISRDNAKNTVYLQMNSLKPEDTAVYYCAARSRSWRQRYGDFDYWGQGTQVTVSS”, with “low polyreactivity”.
Then “QVQLVESGGGLVQAGGSLRLSCAASGRIFKYNAMGWYIQAPGKERELVAVITSGGSTYYADSVKGRFTISRDNEKNTVYLQMNSLKPDDTEVYYCAKKYYKVHKFDYWGQGTQVTVSS”, with “low polyreactivity”.
With “QVQHVESGGGLVQAGGSLRLRCAASGSTFQYNPMGWYRQAPGKERELVASITRGGNTNYADSVKGRFTISRDNAKNTVYLQMNSLKPEDTAVYYCAARSTYRVSHVDYWGQGTQVTVSS”, the “polyreactivity (PSR sort gate)” value is reported as “low polyreactivity”.
Then “QVQLVESGGGLVQAGGSLRISCAASGFIFTLYAMGWYRQAPGKERELVAAISKRGGSTNYADSVKGRFTISRDNAKNTVYLLMNSLKPEDTAVYYCANARPGFLYDHWGQGTQLTVSS”, with “high polyreactivity”; and “QVQLVESGGGLVQAGGSLRLSCAASGYTFYPYAMGWYRQAPGKERELVAAISGGASTYYADSVKGRFTISRDNAKNTVYLHMNSLKPEDTAVYYCAVSVYTYVVWYVAATYDYWGQGTQVTVSS”, with “low polyreactivity”; and “QVQLVESVGGLVQAGGSLRLSCAAAGRTFTLYAMGWYRQATGKERELVAAIRWSGSSTYSADSVKGRFTISRDNAKNTVYLQMNSLKPEDTAVYACDARAGRYDRYGYWGQGTQVSVSS”, with “high polyreactivity”.
“QVQLQESGDGLVQAGGSLRLSCAASGNIYDADIMGWYRQAPGKERELVTSITDGGSTNYADSVKGRFTISRDNAKNTVYLQMNSLKPEDTAVYYCAAIAYPDIPTSFDYNSDYSYWGQGTQVTVSS”: the “polyreactivity (PSR sort gate)” value is “low polyreactivity”.
For the sequence “QVQLVESGGGLVQAGGSLRLSCAASGIIFWYYAMGWYRPAPGKERELVAAISSGGGTNYADSVKGRFTISRDNAKNTVYLQMNSLKPEDTAVYYCAVASGPELDYWGQGTQVTVSS”, the “polyreactivity (PSR sort gate)” value is given as “low polyreactivity”.
In the case of “QVQLVESGGGLVQAGGSLRLSCAASGRTFTSNAMGWYRQAPGKERELVAAITRGGSTYYADSVKGRFTISRDNAKITVYLQMNSLKPEDTAVYYCAAAYGGRLRYTAGYYWGQGTQVTVSS”, the “polyreactivity (PSR sort gate)” value is recorded as “high polyreactivity”.
For “QVHLVESGGCLVQAGGSLRLSCAASGRIYRYAMGWYRQAPGKERELVAVITRRGDGTYYADSVKGRFTISRDNAKNTVYLQMNSLKPEDTAVYYCNADQSYKRPWPYDYWGQGTQVTVSS”, the “polyreactivity (PSR sort gate)” value was “high polyreactivity”.
The same measure for “QVQLVESGGGLVQAGGSLRLSCAASGSIFYNYTMGWSRQAPGKERELVAAISSSGGSTYYADSVKGRFSISRDNAKITVYLQMNSLTPEDTAVYFCAARSPGYYRIVWYDYWGLGTQVTVSS”: “high polyreactivity”; for “QVQLVESGGGLVQAGGSLRLSCAASGSTFKWNAMGWYRQAPGKERELVAAINSGGSTYYADSVKGRFTISRDNAKNTVYLQMNSLKPEDTAVYYCAKKWAVRTPFRYGIRYDYWGQGTQVTVSS”: “low polyreactivity”.
Then “QVQLVESGGGLVQAGGSLRLSCAASGRTSVRYAMGWYRQAPGKERELVAAISWSGGSTYYADSVKGRFTISRDNAKNTVYLQMNSLKPEDTAVYYCAAERGPTNHTSYPWYEYDYWGQGTQVTVSS”, with “low polyreactivity”.
The same measure for “QVQLVESGGGLVQAGGSLRLICAASGFIFVYYVMGWYRQAPGKERELVAAITQSGGSTYYADSVKGRFTISRDNAKNTVYLQMNSLKPEDTAVYYCAAYRRTTGGGYDYWGQGTQVTVSS”: “high polyreactivity”; for “QVQLVESGGGLVQGGGSLRLSCAASGRTFYRYVMGWYRQAPGKERELVADISRRGGRTYYADSVKGRFTISRDNAKNTVYLQMNSLKPEDTAVYYCAAGQLGDYWGLGTQVTVSS”: “high polyreactivity”; for “QVQLVESGGALVQAGGSLRVSCAASGFIFYGYAMGWYRQAPGKERELVAAISSGGGRTYYADSVKGRFTISRDNAKNTVYLQMNSLKPEDTAVYYCAAKVYYYTGGGGEDYWGQGTQVTVSS”: “low polyreactivity”.
As to “QVQLVESGGGLVQAGGSLRLSCAASGRIFGVNAMGWYRQAPGKERELVAAINYSGGRTSYADSVKGRFTISRDNEKNTVYLQMKSLKPEDTAVYYCAKYGLRGGYLYYYWGQGTQVTVSS”, the “polyreactivity (PSR sort gate)” value is “high polyreactivity”.
Then “QVQLEESGGGLVQAGGSLRLSCAASGSTFVGNAMGWYRQAPGKERELVAAISFSGGSTYYADSVKGRFTISRDNAKNTVYLQMNSLKPEDTAVYYCAKKTRYRSRGMNYWGQGTQVTVSS”, with “high polyreactivity”.
Then “QVKLVESGGGLVQAGGRLRLSCAASGFTCNVYAMGLYRQAPGKERELVADISGTGGSTYYADSVKGRFTISRDNAKNTVYLQMNSLKPEDTAVYYCSSGTRNFDFWGQGTQVTVSS”, with “high polyreactivity”; and “QVQLVESGGGLVQAGGSLRLSCAASGRIFDYYAMGWYRQAPGKERELVAAINSGGSTYYADSVKGRFTISRDNAKNTVYLQMNSLKPEDTAVYYCAAKSFAPIVDYWGQGTQVTVSS”, with “high polyreactivity”; and “QVQLVESGGGLVQAGGSLRLSCAASGLIFSSYAMGWYRQAPGQERELVAAITGSGGRTYYADSVKGRFTISRDNAKNTVYLQMNSLKPEDTAVYYWNRRSRRQGGYWGQGTHVTVSS”, with “high polyreactivity”.
As to “QVQLHESGGGLVQAGGGLRLSCASSGSISSTGFMGWYRQAPGKEREPVAAIAPGTTTYYADSVKGRFTIRRDNAKNTVYLQMNSLRPEDTAVYYCAVFTDNRVAFLYWGQGTQVTVSS”, the “polyreactivity (PSR sort gate)” value was “low polyreactivity”.
The same measure for “QVQLVESGGGLVQAVGSLRLSCAASGSTFGEYAMGWYRQAPGKERELVAVITSDDNTYYADSVKGRFTISRDNAKNTVYLQMNSLKPEDTAVYYCATDDRRRFKYWGQGTQVTVSS”: “high polyreactivity”; for “QVQLVESGGGLVQAGGSLRLSCAASGSTFVVNAMGWYRQAPGKERELVAAIRIIGGSTYYADSVKGRFTISRDNAKNTVYLQMKSLKPEDTAVYYCVYSGYFPHQSKMDYWGQGTQVTVSS”: “low polyreactivity”.
